The supplement of paper PMC9170038

Tested on: MS2 coat protein
Assay: apparent KD of MS2 coat protein; designed switch direction (-1 OFF switch, 1 ON switch): 1; higher = weaker reporter binding
Outline: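 Apparent KD, taken as the median over clusters for each design, was obtained by curve-fitting normalised cluster fluorescence. Designed RNA switches had been transcribed on Illumina chips by stalled E. coli RNA polymerase and titrated with SNAP-549-labelled MS2 coat protein, doubling from 0.7 or 1.5 nM to 3 µM.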

[1] = Eterna round: R95, input ligand: FMN 200 uM
[2] = Eterna round: R95, input ligand: microRNA oligo, concentration not stated
[3] = Eterna round: R95, input ligand: none
[4] = input ligand: microRNA oligo, concentration not stated

Sequence | apparent KD of MS2 coat protein [1] | apparent KD of MS2 coat protein [2] | apparent KD of MS2 coat protein [3] | apparent KD of MS2 coat protein (input ligand: FMN 200 uM) | apparent KD of MS2 coat protein [4] | apparent KD of MS2 coat protein (input ligand: none)
AUAAAACAUGAGGAUCACCCAUGUCAACAUAGUCGAGGAUAUGGGCAAAUAAAAUAAGAACCAGAAGGCGAAUAAU [salish99_ss1_r3_040] (puzzle: Same State 1) | 50.5 nM | 714 nM | 510 nM |  |  | 
GCGAAAUGAUGAAACAUGAGGAUCACCCAUGUAACGAGAGAUGAGGAUAUCGGAAAGGGAGGAACCGAGAAGGCAUGGUCACGC [AK SSNG3-V2-26.1] (Eterna round: R96, puzzle: Same State NG 3) |  |  |  | 34.5 nM | 37.1 nM | 48.2 nM
UGUAUACAUGAGGAUCACCCAUGUCAACGUAGUCGAGGAUAUGGGCAGCCGUGAGGCGUACCAGAAGGCGAAGAGG [JL-ss1-3.05 ViennaUCT mod] (Eterna round: R96, puzzle: Same State 1) |  |  |  | 36.5 nM | 104 nM | 151 nM
GGAAUAUUUACAGGAUAUGAUUUGUAAAUUCGAUCAGAAGGGUAGAUGUCUUACACGAUUUGUUACAUGAGGAUCACCCAUGUU [SameState NG1 #10] (Eterna round: R96, puzzle: Same State NG 1) |  |  |  | 31 nM | 81.9 nM | 86.3 nM
GUGGUCAGACAUGAGGAUCACCCAUGUGGAAUAAAUAAGGGACAGGAUAUCUAAUAUAGGAUAUAAGAGAAGGGUUGGUUGGUG (Eterna round: R96, puzzle: Same State NG 3) |  |  |  | 69.3 nM | 44.8 nM | 73.5 nM
AUUAAACAUGAGGAUCACCCAUGUCAACAAAGUCGAGGAUAUGGGCAAUUAAAAUAAGAACCAGAAGGCGAAUAAU [salish99_ss1_r3_061] (puzzle: Same State 1) |  | 224 nM |  |  |  | 
CACAUGAGGAUCACCCAUGUGAGGCGGCAAUAAAACCGCGCACAGGAUAUAGCGCUAAGAAAGCGCUAGAAGGGUGAUUAGAAC [Gerelabies] (Eterna round: R96, puzzle: Same State NG 3) |  |  |  | 712 nM | 20.8 nM | 71.1 nM
UCUUGGUUUUUGCUCGUUUUUUGUGUUGAACAUGAGGAUCACCCAUGUAUUGUACGGUCCAAUUUAGUGGUAAUCCG [JMF 66] (puzzle: Sensor for hsa-mir-208a) | 45.1 nM | 29 nM | 48.7 nM |  |  | 
GCGAGCGUACUUGCAGACAUGAGGAUCACCCAUGUAAAUGGGAAGGAUAUGGUACCGUUUCGGUACCAGAAGGUCCUAAGUGAG [JL SSNG3 1.49] (Eterna round: R96, puzzle: Same State NG 3) |  |  |  | 129 nM | 702 nM | 646 nM
AGUCCAGCCUGAGCUGGACAAAAGCAUGUACAUGAGGAUCACCCAUGUUCAUGUACAAGCUUUUUGCUCGUCUAAAU [Mat - hsa-mir-208a - Mod of JL - 46] (puzzle: Sensor for hsa-mir-208a) | 449 nM | 15.5 nM | 682 nM |  |  | 
CGUCCAGCCUGAGCUGGACAAAAGCAUGUACAUGAGGAUCACCCAUGUUCAUGUACAAGCUUUUUGCUCGUCUUACC [salish99_208a_r3_094x] (Eterna round: R96, puzzle: Sensor for hsa-mir-208a) |  |  |  | 760 nM | 14.3 nM | 752 nM
GCCGCACAUGAGGAUCACCCAUGUAAUUACAUGGGAGGAUAUCAGUGCUCGAAAGAGCACUGAGAAGGCCUGUGGC [SS1 - Omei A v2] (puzzle: Same State 1) | 399 nM | 31.9 nM | 39 nM |  |  | 
GUUCGUUUGAUAGGAUAUCGCUAUACAUGAGGAUCACCCAUGUUUACCACGCUGGUUUUUCGUACCGAGAAGGAUUCUGAUGAU [JL JR sub007 mod 2] (Eterna round: R96, puzzle: Same State NG 2) |  |  |  |  | 30.5 nM | 
AGCUAGUACGAAGGAUAUACAAACAUGAGGAUCACCCAUGUAUACAUGGUUUGUUGUGACUACAUGUAGAAGGUCGUACUAGCA [SameState NG2 #16] (Eterna round: R96, puzzle: Same State NG 2) |  |  |  | 362 nM | 773 nM | 987 nM
UGGUACAUGGGAGGAUAUCCUCAGGAGACAUGAGGAUCACCCAUGUAAUUUAAGCCGAAAGGCAUGGAGAAGGCCCAUGUACCU [JL SSNG1 3.80] (Eterna round: R96, puzzle: Same State NG 2) |  |  |  | 19.5 nM | 94.1 nM | 129 nM
CUGUCUACAGGUGUCUUUGCUCGUUUUAUACAUGAGGAUCACCCAUGUUGUAGCCCGGUGCUUGCGCUGGGCUGGUU [JL ViennaUCT Tearor mod 9] (puzzle: Sensor for hsa-mir-208a) | 66 nM | 15.6 nM | 72.7 nM |  |  | 
UGGUAACAUGAGGAUCACCCAUGUCAAAUGAAUCGAGGAUAUGGGAAUUAACAACACAAACUAGAAGGCGAAUUUG [Altered State 1-8 - Jieux - Same State 1] (puzzle: Same State 1) | 293 nM | 488 nM | 180 nM |  |  | 
UAAGAACAUGAGGAUCACCCAUGUGGAAAGAACACAGGAUAUCAUAGUAGAACGAGACUAUGAGAAGGGUGACACG [Texeistean] (puzzle: Same State 1) | 595 nM | 214 nM | 666 nM |  |  | 
GGUCCAGCCUGAGCUGGACAAAAGCAUGUACAUGAGGAUCACCCAUGUUCAUGUACAAGCUUUUUGCUCGUCUUGCA [salish99_208a_r3_110x] (puzzle: Sensor for hsa-mir-208a) | 639 nM | 15.5 nM | 706 nM |  |  | 
AAAAGACAUGAGGAUCACCCAUGUAUGAAAAGUACAGGAUAUCACGAGCUAAAGUGCGAGUGAGAAGGGUGAAAAU [Araceesge] (puzzle: Same State 1) | 60.9 nM | 41.9 nM | 37.1 nM |  |  | 
AAAAGUUGCGGGCAGGAUAUGUAUUAAAAUACAUGAGGAUCACCCAUGUGCGGGUAUAACACCCGACAGAAGGGCCAAACGCGAC [Mat - Same State 2 - Mod of UCT - D96] (puzzle: Same State 2) | 27.4 nM | 178 nM | 333 nM |  |  | 
AGAGUGUAUCCACAGGAUAUGCGAGCCGACACAUGAGGAUCACCCAUGUAGUCCUAAAGGGCUGAGCAGAAGGGUGGUAAGGCUC [Xelear] (puzzle: Same State 2) | 31.7 nM | 169 nM | 285 nM |  |  | 
GCCAACUCAUGAGGAUAUGGCACCUUAAUGGUGCCAGAAGGCAUGUCUAUUGACAUGAGGAUCACCCAUGUAUUAUUGUUGGCA [Fiskers NG1ss - 25] (Eterna round: R96, puzzle: Same State NG 1) |  |  |  | 100 nM | 241 nM | 821 nM
UACAAUCUAUCUGAGGAUAUCAUGAUGAUAACAUGAGGAUCACCCAUGUGCAGGAAAACUGCAUAUGAGAAGGCAGAUAGAUUGU [salish99_ss2_r3_074] (puzzle: Same State 2) | 102 nM | 195 nM | 92.4 nM |  |  | 
